Values quoted from earlier work as cited in patent publication US20090023631A1, “Composition and Method of Use for Soft Tissue Augmentation/Drug Delivery” (priority 2007, published 2009).

Test system: stage III and IV ulcers
Conditions: multiple studies

B1: recombinant human PDGF-BB: platelet-derived growth factor, commercial product available as recombinant human PDGF-BB (protein, UniProt P01127 82-190, looked up)
Platelet-derived growth …: SLGSLTIAEPAMIAECKTRTEVFEISRRLIDRTNANFLVWPPCVEVQRCSGCCNNRNVQCRPTQVQLRPVQVRKIEIVRKKPIFKKATVTLEDHLACKCETVAAARPVT
modifications: BB homodimer
healing time: reduce healing time
incidence of complete wound healing: improve the incidence of complete wound healing
